In patent publication KR20220090395A (dated 2022) one finds Kd data, which are given here for three molecules.

Read-outs that look alike come from different tables or passages of the source.

One test has as its target SARS-CoV-1 RBD (SARS-CoV-1, UniProt P59594 306-527). Put plainly: binding measurement of Fig. 20; method not given.
Test [1] deals with T1, SARS-CoV-2 RBD (Biotinylated SARS-CoV-2 RBD, Acrobio 시스템) (SARS-CoV-2, UniProt P0DTC2 319-537). The test is described as follows: BLI; IgG1 made in CHO cells.
Test [2] has as its target T1, SARS-CoV-2 RBD (Biotinylated SARS-CoV-2 …).

B1: D27LEY (IgG1 형태) (antibody, V domains shown)
VH: QVQLQQSGAEVKKPGSSVKVSCKASGGTFGNWSISWVRQAPGQGLEWMGGIAPGRGEATYAQKFQGRVTITTDESTSTAYMELSSLRSEDTAVYYCARETWYTSGGMDVWGQGTTVTVSS
VL: SYELTQPPSVSVAPGKTARITCGGNNIGRKSVHWYQQKPGQAPVLVVYDDSDRPSGIPERFSGSNSGNTATLTISRVEAGDEADYYCQVYDLWSSDYVFGTGTKVTVL
In general, Kd refers to the equilibrium constant for the complex coming apart. In the test with SARS-CoV-1 RBD, B1 returned an equilibrium dissociation constant (Kd) of less than 0.001 nM.

B2: D27LE (IgG1 형태) (antibody, V domains shown)
VH: QVQLQQSGAEVKKPGSSVKVSCKASGGTFGNWSISWVRQAPGQGLEWMGGIDPSRGEATYAQKFQGRVTITTDESTSTAYMELSSLRSEDTAVYYCARETWYTSGGMDVWGQGTTVTVSS
VL: SYELTQPPSVSVAPGKTARITCGGNNIGRKSVHWYQQKPGQAPVLVVYDDSDRPSGIPERFSGSNSGNTATLTISRVEAGDEADYYCQVYDLWSSDYVFGTGTKVTVL
Regarding B2, in test [1], binding was characterised by a dissociation constant (Kd) of 7.1 nM.

B3: D27 항체 (designed full-length antibody D27) (antibody, V domains shown)
VH: QVQLQQSGAEVKKPGSSVKVSCKASGGTFGNWSISWVRQAPGQGLEWMGGIDPSRGEATYAQKFQGRVTITTDESTSTAYMELSSLRSEDTAVYYCARETEQGGMDVWGQGTTVTVSS
VL: SYELTQPPSVSVAPGKTARITCGGNNIGRKSVHWYQQKPGQAPVLVVYDDSDRPSGIPERFSGSNSGNTATLTISRVEAGDEADYYCQVYDLFSDYVFGTGTKVEIK
Molecule B3 returned a Kd in test [2] of 175 nM.
